Source: patent publication US20260258135A1 (BIOINTRON BIOLOGICAL, published 2026)
Substitutions are numbered along the chain they refer to. Values belong to the binder of their own block, whether it stands above or below them.

Key:
[1] = target: T1, PDL1/His protein (human, UniProt Q9NZQ7 19-238, limits assumed, biotin-labeled in Examples 4 and 6 (site not stated); unlabeled in Example 9); assay: relative affinity ranking, sandwich ELISA, biotin-PDL1/His titrated from 5 ug/mL
T1 construct: The reagent is named only PDL1/His; also called Biotin-labeled PDL1/His; Bio-PDL1; not shown: His tag
Protocol: The expression supernatants of the 11 single-point mutation molecules screened out in Example 4 and the 4 hotspot combination molecules screened out in Example 5 were subjected to relative affinity ranking. The specific process is as follows: The plate was coated with 1 μg/mL Goat-anti-human IgG Fc at 4° C. overnight. The coating solution was discarded the next day, and the plate was washed 5 times. Blocking was performed with 1% BSA at room temperature for 1 h, and the plate was washed 5 times. 50 μL of 2-fold diluted expression supernatant was added to each well and incubation was performed at room temperature for 1 h, and the plate was washed 5 times. Biotin-labeled PDL1/His diluted in series was added with 5 μg/mL in the first well, 3-fold dilution, and the last well as blank, and incubation was performed at room temperature for 1 h, and the plate was washed 5 times. SA-HRP was added, and incubation was performed at room temperature for 0.5 h, and the plate was washed 10 times. TMB color development was terminated after 4 min, and the absorbance at 450 nm was read.

[2] = target: T1, PDL1/His protein; assay: Biacore 8K (SPR), purified antibody
[3] = target: T1, PDL1/His protein; assay: hotspot screening sandwich ELISA, anti-human Fc 1.0 ug/mL, Bio-PDL1 4 ng/ml
Protocol: Goat-anti-human IgG Fc was subjected to serial dilution in Table 5 and coating was performed overnight at 4° C. The coating solution was discarded the next day, and the plate was washed 5 times. Blocking was performed with 1% BSA at room temperature for 1 h, and the plate was washed 5 times. 50 μL B378737 expression supernatant was added to each well, incubation was performed at room temperature for 1 h, and the plate was washed 5 times. Biotin-labeled PDL1/His protein diluted in series was added, incubation was performed at room temperature for 1 h, and the plate was washed 5 times. SA-HRP was added, incubation was performed at room temperature for 0.5 h, and the plate was washed 10 times. TMB color development was terminated after 4 min, and the absorbance at 450 nm was read. […] The sample was the mutant expressing supernatant, and the other processes were the same as above.

[4] = target: T1, PDL1/His protein; assay: sandwich ELISA screen of hotspot combinations, as in Example 4

T1 sequence (Q9NZQ7 19-238 limits assumed): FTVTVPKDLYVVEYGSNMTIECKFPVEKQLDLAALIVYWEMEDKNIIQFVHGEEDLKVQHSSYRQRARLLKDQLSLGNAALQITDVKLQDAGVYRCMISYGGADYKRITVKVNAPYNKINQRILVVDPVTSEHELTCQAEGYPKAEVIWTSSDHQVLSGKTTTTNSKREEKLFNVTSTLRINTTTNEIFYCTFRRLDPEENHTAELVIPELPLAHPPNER

B1: B378737-32 (VHH)
VHH: QVQLVESGGGLVQPGGSLRLSCAASARSINGQEWYRQAPGERRELVAGITAGGSAYYTDTVKGRFTISRDNAENTGYLQMNSLSPDDTAVYYCRRQYGPNWYWGQGTQVTVSS
notes: Single-point mutant of B378737 (position 32); not shown: human IgG Fc implied (supernatant captured with goat anti-human IgG Fc)
binding result [1]: binds

B3: B378737-61-5 (VHH)
VHH: B1 VHH with Q32M, V61H
notes: Single-point mutant of B378737 (position 61); not shown: human IgG Fc implied (supernatant captured with goat anti-human IgG Fc)
binding result [1]: binds

B4: B378737-61-3 (VHH)
VHH: B1 VHH with Q32M, V61S
notes: as for B3
binding result [1]: binds

B5: B378737-51 (VHH)
VHH: B1 VHH with Q32M, A51S
notes: Single-point mutant of B378737 (position 51); not shown: human IgG Fc implied (supernatant captured with goat anti-human IgG Fc)
binding result [1]: binds

B6: B378737-97-1 (VHH)
VHH: B1 VHH with Q32M, Y97F
notes: Single-point mutant of B378737 (position 97); not shown: human IgG Fc implied (supernatant captured with goat anti-human IgG Fc)
binding result [3]: binds

B7: B378737-61-1 (VHH)
VHH: B1 VHH with Q32M, V61P
notes: as for B3
binding result [1]: binds

B10: B378737-61-7 (VHH)
VHH: B1 VHH with Q32M, V61L
notes: as for B3
binding result [1]: binds

B11: B378737-97-2 (VHH)
VHH: B1 VHH with Q3R, Q32M, Y97V
notes: Single-point mutant of B378737 (position 97); copied as printed; not shown: human IgG Fc implied (supernatant captured with goat anti-human IgG Fc)
binding result [3]: binds

B13: B378737-ZH-2 (VHH)
VHH: B1 VHH with Y97V
notes: Hotspot combination (positions 32 and 97); not shown: human IgG Fc implied (supernatant captured with goat anti-human IgG Fc)
binding result [4]: binds

B14: B378737-61-2 (VHH)
VHH: B1 VHH with Q32M, V61Y
notes: as for B3
binding result [1]: binds

More lines, now with the values ahead:

fold increase of affinity over the parent antibody B378737 [2]: 10 times
B2: B378737-ZH-1 (VHH)
VHH: B1 VHH with Y97F
notes: as for B13

binding result [1]: binds
B8: B378737-61-6 (VHH)
VHH: B1 VHH with Q32M, V61K
notes: as for B3

binding result [1]: binds
B9: B378737-61-4 (VHH)
VHH: B1 VHH with Q32M, V61T
notes: as for B3

fold increase of affinity over the parent antibody B378737 [2]: 12 times
B12: B378737-ZH-4 (VHH)
VHH: B1 VHH with V61H, Y97V
notes: Hotspot combination (positions 32, 61 and 97); not shown: human IgG Fc implied (supernatant captured with goat anti-human IgG Fc)
